Experimental data published in article PMC3017119, “Structural Basis for the Recognition of Cellular mRNA Export Factor REF by Herpes Viral Proteins HSV-1 ICP27 and HVS ORF57” (PLoS Pathogens, 2011).

B1: unnamed (parent)
chain 1: MATDIDMLIDLGLDLSDSDLDEDPPEPAESRRDDLESDSSGECSSSDEDMEDPHGEDGPEPILDAARPAVRPSRPEDPGVPSTQTPRPTERQGPNDPQPAPHSVWSRLGARRPSCSPEQHGGKVARLQPPPTKAQPARGGRRGRRRGRGRGGPGAADGLSDPRRRAPRTNRNPGGPRPGAGWTDGPGAPHGEAWRGSEQPDPPGGQRTRGVRQAPPPLMTLAIAPPPADPRAPAPERKAPAADTIDATTRLVLRSISERAAVDRISESFGRSAQVMHDPFGGQPFPAANSPWAPVLAGQGGPFDAETRRVSWETLVAHGPSLYRTFAGNPRAASTAKAMRDCVLRQENFIEALASADETLAWCKMCIHHNLPLRPQDPIIGTTAAVLDNLATRLRPFLQCYLKARGLCGLDELCSRRRLADIKDIASFVFVILARLANRVERGVAEIDYATLGVGVGEKMHFYLPGACMAGLIEILDTHRQECSSRVCELTASHIVAPPYVHGKYFYCNSLF
chain 2: not shown

Variants of: B1
Assay: co-immunoprecipitation with densitometry of Western blot
Conditions: 293T cells transfected with GFP-tagged ICP27 and its mutants, IP with polyclonal GFP-specific antibody and Protein A agarose, 3 independent experiments, read off a plot, scale: relative binding normalised against GFP control

First: chain 1 R107A L108A
Second: chain 1 W105A R107A L108A
The response of the first is higher: 0.37 for the first, 0.3 for the second.

chain 1 W105A gave a response of 0.32.
